In patent US12371675B2, “Process and microorganism for synthesis of adipic acid from carboxylic acids” (THE GOVERNING COUNCIL OF THE UNIVERSITY OF TORONTO, priority 2015, dated 2025):

B1: PSPH1060: OYE protein from Pseudomonas syringae pv. phaseolicola 1448A (protein)
chain: MSVEALFTPFRLGSLELSSRVVMAPMTRSFSPGHVPNSKVIEYYRRRAAAGVGLIVTEGTTVNHKASNGYPNVPQFFGDAPLAGWRKVVEAVHAEGGKIVPQLWHVGAVRRPGTEPDGSVPAYGPMEKVKDGQVLVHGMSKQDIDDVVAAFAQAAVDAKAIGMDGVEIHGAHGYLIDQFFWEGSNQRSDEYGGSLAKRSRFAIELIKAVRVAVGADYPIIFRFSQWKQQDYTARLVQTPEALGEFLQPLADAGVDIFHCSTRRFWEPEFEGSDLNLAGWTRKLTGKPTITVGSVGLDGEFLQFMVNTDKVAQPASLENLLKRLGNDEFDLVAVGRALLVDPDWALKVREGREQDILPFSREALTTLV
B2: PP0911: OYE protein from Pseudomonas putida KT2440 (protein)
chain: MTTLFDPIKLGDLQLPNRIIMAPLTRCRADEGRVPNALMAEYYVQRASAGLILSEATSVSPMGVGYPDTPGIWNDEQVRGWNNVTKAVHAAGGRIFLQLWHVGRISHPSYLNGELPVAPSAIQPKGHVSLVRPLSDYPTPRALETEEINDIVEAYRSGAENAKAAGFDGVEIHGANGYLLDQFLQSSTNQRTDRYGGSLENRARLLLEVTDAAIEVWGAQRVGVHLAPRADAHDMGDADRAETFTYVARELGKRGIAFICSREREADDSIGPLIKEAFGGPYIVNERFDKASANAALASGKADAVAFGVPFIANPDLPARLAADAPLNEAHPETFYGKGPVGYIDYPRL
B3: PSPH1370: OYE protein from Pseudomonas syringae pv. phaseolicola 1448A (protein)
chain: MSLLLEPYTLRQLTLRNRIAVSPMCQYSSVDGLANDWHLVHLGSRAVGGAGLVITEAMAVTPDGRITPEDLGLWNDEQIEPLQRITRFINAQGAVAGIQLAHAGRKASTWRPWLGKHGSISLNEGGWTPVGPSAIAFDPQHTAPVQLSETQIQELIKAFVDSARRALTAGFKVVEIHAAHGYLLHQFLSPLSNQRTDQYGGSFENRIRLTLQVTEAVRAVWPEELPLFVRVSATDWVEDGWNADETVELARRLKALGTDLIDVSSGGTSANAEIPVGPGYQTRFAERVRKESEIATGTVGMITDPAQAEHILRTGQADIILLARELLRDPYWPLRADEDLGGRLATWPAQYQRATHRDQPIHESDLRD
B4: LMO2471: OYE protein from Listeria monocytogenes EGD-e (protein)
chain: MSKLFSEYKLKDVTLKNRIVMSPMCMYSVENKDGIATDFHFAHYVSRAAGGTGLVILEATAVQEVGRISEFDLGLWNDEQVPALKKLVGGLHYHGAKAGIQLAHAGRKAVLPGEIVAPSAIAFDEKSDKPVELTKEAIKEVVADFKRAAYRAKEAGFDVIEIHAAHGYLIHQFLSPITNRREDNYGGPAGNRYKILSDIIKAVKEVWDGPIIVRVSATDYAHGGLQLEDHIPFAKWMKADGVELIDVSTGGLVNVAPPVFPGYQVPFADEIRRGAGIATGALGLITRGEQAEEILCNERADLIIVGRELLRNPYFAKDAAKQLGETIEAPKQYSRAWK
B5: NE2398: OYE protein from Nifrosomonas europaea ATCC 19718 (protein)
chain: MLFNPLQVGSLTLPNRILLAPLTRARADAGHMPNALMAEYYSQRATGGLLISECTMVAPGTSAFVNEPGIYNDAQIAAWRQVTDAVHAKGGRIFMQIWHAGRAAYPGAADGAPIVSSSATAIEGEIHTPQGKVPHAVPRPLTVDEIPGIVAAFAQGARNAIAAGFDGVEVHGANGYLIDQFLRDTPNQRTDAYGGSLENRARLLFEVLTAVTQAIGSERVGLRLSPLNSFNSMKDSDPLALIGFLADRLNAFKLAYLHVMRADFFGVQKADVMPVAREKYKGVLVGNMGYSADEAEAAIAEGRLDAVAFGTAFLANPDLPARIRAKAPLNAPDSNTFYAGGAKGYTDYPTLQLA
B6: PA4356: OYE protein from Pseudomonas aeruginosa PAO1 (protein)
chain: MATLFDPIVLGDLELPNRIVMAPLTRCRADEGRVPNALMAEYYAQRADAGLILSEATAVTPMGVGYPDTPGIWSDDQVRGWSNVTKAVHAAGGRIFLQLWHVGRISDPLYLNGELPVAPSAIAAEGHVSLVRPKRPYVTPRALDTEEIADIVEAYRQGAERAKAAGFDGVEIHGANGYLLDQFLQDSTNKRTDRYGGSIENRARLLLEVTDAAISVWGAQRVGVHLAPRADSHDMGDSNRLETFSHVARELGKRGIAFICAREAQADDSIGVALKKAFGGPYIANEQFTLDSANAILAKGDADAVAFGVPFIANPDLVERLRQGAELNPPRPETFYTGGTEGYLDYPTLA
B7: PS1143: OYE protein from Pseudomonas syringae pv. tomato str. DC3000 (protein)
chain: MSAAALFTPFRLGGLELSSRVVMAPMTRSFSPGHVPNSKVIEYYRRRAAAGVGLIITEGTTVNHPASNGYPNVPQFFGDAPLAGWKKVVDAVHAEGGKIAPQLWHVGAVRRLGTEPDGSIPAYGPMEKVKDGQVLVHGMSKQDIDEVVAAFAQAAADAKAIGMDGVEIHGAHGYLVDQFFWEGSNQRSDEYGGSLANRSRFAIELIKAVRAAVGPDYPIIFRFSQWKQQDYSARLVQTPEALGEFVQPLSDAGVDIFHCSTRRFWEPEFEGSELNLAGWTRKLTGKPTITVGSVGLDGEFLQFMVNTEKVAQPASLENLLERLGKDEFDLVAVGRALLVDPDWAVKVREGREQDILPFSREALTTLV
B8: PP1466: OYE protein from Pseudomonas putida KT2440 (protein)
chain: MSLLLEPYTLRQLTLPNRIAVSPMCQYSAIDGLANDWHLVHLGCRAVGGAGLVISEAVAVTADGRITAEDLGLWNDDQIVPLQRITRFITAQGAVPGIQLAHAGRKASTYRPWLGKQGSVKLEDGGWQPVGPSKIAFDPQHTPPRELSKDEIQDVIDAFVASTERALKAGFKVVEIHAAHGYLLHQFLSPLSNQRRDEYGSCFENRIRLTLQVVEAVRKVWPAELPLFVRVSATDWVEDGWNPDETVELARRLRVLGVDLIDVSSGGTSVNAEIPTGPGYQTRFAERVRKEAEIATGTVGMITEPAQAEHILRTGQADVIFLARELLRDPYWPLHADDDLGGNKATWPAQYQRATSRANPIHESDLRD
B9: PS4251: OYE protein from Pseudomonas syringae pv. tomato str. DC3000 (protein)
chain: MTTIFDPITLGDLQLPNRIILAPLTRCRADEGRVPNALMSEYYVQRASAGLILTEATSVTPMGVGYPDTPGIWSNDQVRGWSNITQAVHNAGGRIVLQLWHVGRISHPSYLNGETPVAPSAIAAQGHVSLMRPITPLPTPRALELAEIGDIVEAYRVGAENAKAAGFDGVEVHGANGYLLEQFLLTGSNQRTDQYGGSLENRARLLLEVTDAVIDVWGAGRVGVHLSPRFDMHNMSDENRAETFSYVAKELGKRGIAFICARERDAEDSLGPQLKKDFGGVYIANEKFTKDSANAWLAEGKADAFAFGVPYIANPDLPERLASDAPLNEAHPETFYGKGPVGYIDYPRL
B10: PS2358: OYE protein from Pseudomonas syringae pv. tomato str. DC3000 (protein)
chain: MSALFEPFKLKDVTLRNRIAIPPMCQYSAIDGVVNDWHHVHLASMARGGAGLLVVEATAVAPEGRITPGCTGIWNDEQAQAFVPIVKAIKDAGCVPGIQIAHAGRKASANRPWEGDDHIVASDSRGWDTIAPSAIAFGANLPKVPRAMTLDDIARVRQNFVDAARRARDAGFEWIELHFAHGYLGQSFFSEHSNQRTDEYGGSFDNRSRFLLETLAAVREVWPENLPLTARFGVLEYDGRDEQTLTESIELARRFKAGGLDLLSVSVGFSTPDANIPWGPAFMGPIAERVRREAAIPVTSAWGFGEPKLAEEAVKSGQLDLVSIGRAHLADPHWAYFAAKELGVEKSAWTLPAPYAHWLERYR
B11: PA2932: OYE protein from Pseudomonas aeruginosa PAO1 (protein)
chain: MSNLLLSPLAVGNLALRNRIVMAPMTRSRAQQPGDVPTALNALYYAQRAGAGLIVSEGTQISHLGQGYAYTPGIYSEAQLAGWRQVTEAVHAAGGLIAAQLWHVGRMSHRSLQAGGEAPIAPSPIQAKAQVFIADGQGGGSMAPADAPREMTLEDIRRVRDEFVRAARNALDAGFDLVELHGANGYLIDQFLASASNRRSDAYGGSLENRARFLLEIVDALVAAVGAERVGLRLSPWGTINDMHDDEPEAMTLYLAEALQRRGIAYLHLAEWEWSGGPAYPQGFRERLRERFRAPLIVCGNYDAERAEAILQAGLADAVAIGRPFIANPDLVERIRLGAPLAEANQARFYGGDAAGYTDYPTLGQSATA
B12: PP1244: OYE protein from Pseudomonas putida KT2440 (protein)
chain: MSALFEPYTLKDVTLRNRIAIPPMCQYMAEDGMINDWHHVHLAGLARGGAGLLVVEATAVAPEGRITPGCAGIWSDAHAQAFVPVVQAIKAAGSVPGIQIAHAGRKASANRPWEGDDHIAADDARGWETIAPSAIAFGAHLPKVPREMTLDDIARVKQDFVDAARRARDAGFEWIELHFAHGYLGQSFFSEHSNKRTDAYGGSFDNRSRFLLETLAAVREVWPENLPLTARFGVLEYDGRDEQTLEESIELARRFKAGGLDLLSVSVGFTIPDTNIPWGPAFMGPIAERVRREAKLPVTSAWGFGTPQLAEAALQANQLDLVSVGRAHLADPHWAYFAAKELGVEKASWTLPAPYAHWLERYR

experiment: OYE hydrogenation activity screen, NADPH oxidation at 340 nm; type: biochemical; conditions: 1 mM substrate, 0.25 mM NADPH, 2.5 μg protein; cut-off 0.05 U/mg protein; ND = not detected
Description: 25 putative OYE genes (Table 1) were cloned based on the Pfam domain of the FMN oxidoreductase family PF00724. Purified OYEs were screened for hydrogenation activity against acrolein, 2-cyclohexn-1-one, cis,cis-muconic acid, trans,trans-muconic acid, and 2-hexendioic acid. Substrate specificity was measured spectrophotometrically in 96-well plates by following incubation for 20 min at room temperature in the anaerobic chamber. Buffers and reagents were also degassed and sparged with Ar. Reaction mixtures contained potassium phosphate (50 mM and pH 7.0), NaCl (10 mM), NADPH (0.25 mM), various substrates (1 mM) and protein (2.5 μg) in a final volume of 200 μL. Enzyme reactions were monitored by following the decrease in absorbance at 340 nm (ε340 nm=6,200/M·cm) as a measure of the conversion of the cofactor NADPH to NADP+.

| Molecule | Activity [U/mg protein] 2-cyclohexen-1-one | Activity [U/mg protein] acrolein [U/mg protein] |
| --- | --- | --- |
| B1 | 0.14 U/mg protein | – |
| B2 | 0.15 U/mg protein | – |
| B3 | 0.18 U/mg protein | – |
| B4 | 0.08 U/mg protein | – |
| B5 | 0.19 U/mg protein | – |
| B6 | .15 U/mg protein | – |
| B7 | 0.18 U/mg protein | – |
| B8 | 0.14 U/mg protein | – |
| B9 | 0.09 U/mg protein | – |
| B10 | 0.13 U/mg protein | – |
| B11 | 13 U/mg protein | – |
| B12 | 0.25 U/mg protein | 0.06 |
